# Assays:
# [1] = target: human β2-appendage (700–937) used for ITC (human) (UniProt P63010); test: ITC; VP-ITC; 100 mM HEPES, 50 mM NaCl, 2 mM DTT pH 7.4 at 10 °C; peptides or proteins injected from the syringe into the cell
# [2] = target: epsinR peptide; test: ITC; conditions: stoichiometry (1.3)
# Chain of human β2-appendage (700–937) used for ITC (human) (P63010 700-937): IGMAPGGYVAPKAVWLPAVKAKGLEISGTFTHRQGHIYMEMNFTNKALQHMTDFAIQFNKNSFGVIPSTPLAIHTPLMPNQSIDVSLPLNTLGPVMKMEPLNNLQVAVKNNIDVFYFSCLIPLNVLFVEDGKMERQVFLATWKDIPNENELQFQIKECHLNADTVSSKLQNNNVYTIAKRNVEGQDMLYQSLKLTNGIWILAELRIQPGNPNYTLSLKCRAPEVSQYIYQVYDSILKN
# Chain of human β2-appendage (700–937) used for ITC (P63010 whole entry Y888V, looked up, tested part not stated): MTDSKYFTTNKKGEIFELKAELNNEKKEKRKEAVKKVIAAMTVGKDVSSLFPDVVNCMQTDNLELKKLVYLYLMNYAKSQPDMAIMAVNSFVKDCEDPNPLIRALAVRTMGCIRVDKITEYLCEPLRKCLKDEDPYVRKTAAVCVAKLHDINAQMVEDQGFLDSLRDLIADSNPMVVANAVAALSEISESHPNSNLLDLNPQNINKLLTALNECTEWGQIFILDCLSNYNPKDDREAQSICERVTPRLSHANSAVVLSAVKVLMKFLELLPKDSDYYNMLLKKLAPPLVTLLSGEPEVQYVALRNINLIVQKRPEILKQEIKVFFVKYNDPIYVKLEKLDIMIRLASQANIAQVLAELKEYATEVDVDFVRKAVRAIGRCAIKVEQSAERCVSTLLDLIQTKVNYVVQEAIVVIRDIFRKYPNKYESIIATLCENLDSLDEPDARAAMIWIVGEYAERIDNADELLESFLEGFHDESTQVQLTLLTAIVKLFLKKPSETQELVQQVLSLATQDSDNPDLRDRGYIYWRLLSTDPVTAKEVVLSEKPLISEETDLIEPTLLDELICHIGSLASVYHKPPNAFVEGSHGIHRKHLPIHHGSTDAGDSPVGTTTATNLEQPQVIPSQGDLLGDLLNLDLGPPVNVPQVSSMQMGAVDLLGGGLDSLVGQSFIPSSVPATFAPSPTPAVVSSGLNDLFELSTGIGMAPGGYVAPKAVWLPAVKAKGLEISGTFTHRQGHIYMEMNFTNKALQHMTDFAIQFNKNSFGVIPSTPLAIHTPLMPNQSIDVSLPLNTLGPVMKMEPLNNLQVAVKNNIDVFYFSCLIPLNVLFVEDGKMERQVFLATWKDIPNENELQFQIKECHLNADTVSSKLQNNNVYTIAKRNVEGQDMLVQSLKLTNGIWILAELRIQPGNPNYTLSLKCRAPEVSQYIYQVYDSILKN
Kd [1] [µM],Kd [2] [µM],Substance
80,–,epsinR peptide
–,77,human β2-appendage (700–937) used for ITC (from UniProt P63010) Y888V

# Source: article PMC1540706
